Patent US20070292909

Columns and labels:
[1] = target: ECFP-(spacer) DEVD-keima 616
MiCy-DEVD-mKO = target: T1, MiCy-DEVD-mKO
T1 chain: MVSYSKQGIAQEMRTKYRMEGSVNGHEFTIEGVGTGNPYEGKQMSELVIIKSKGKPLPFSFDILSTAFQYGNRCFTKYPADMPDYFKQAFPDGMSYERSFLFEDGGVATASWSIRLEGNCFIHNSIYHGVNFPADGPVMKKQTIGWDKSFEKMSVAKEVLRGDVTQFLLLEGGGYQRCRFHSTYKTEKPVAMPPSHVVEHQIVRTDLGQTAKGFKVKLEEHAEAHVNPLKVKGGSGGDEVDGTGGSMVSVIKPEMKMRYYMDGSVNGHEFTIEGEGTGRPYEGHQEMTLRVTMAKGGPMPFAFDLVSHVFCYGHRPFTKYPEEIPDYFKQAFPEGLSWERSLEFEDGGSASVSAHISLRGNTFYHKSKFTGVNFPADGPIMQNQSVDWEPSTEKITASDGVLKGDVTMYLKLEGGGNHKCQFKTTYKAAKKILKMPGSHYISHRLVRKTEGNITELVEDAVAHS

[2] = target: keima 616-(spacer) DEVD-ECFP

B1: Caspase-3 (protein)
chain: SGISLDNSYKMDYPEMGLCIIINNKNFHKSTGMTSRSGTDVDAANLRETFRNLKYEVRNKNDLTREEIVELMRDVSKEDHSKRSSFVCVLLSHGEEGIIFGTNGPVDLKKITNFFRGDRCRSLTGKPKLFIIQACRGTELDCGIETDSGVDDDMACHKIPVEADFLYAYSTAPGYYSWRNSKDGSWFIQSLCAMLKQYADKLEFMHILTRVNRKVATEFESFSFDATFHAKKQIPCIVSMLTKELYFYH
amplitude of the fluorescence cross-correlation function, Gcross(0) [1]: A rapid decrease in Gcross(0) was observed as a result of addition of Caspase-3
amplitude of the fluorescence cross-correlation function, Gcross(0) (EGFP-DEVD-mRFP1 (x2)): A decrease in Gcross(0) was observed as a result of addition of Caspase-3
fluorescence spectrum (FRET, excitation at 440 nm) before and after the reaction with Caspase-3 (MiCy-DEVD-mKO): after the addition thereof, FRET disappeared due to the cleavage of the linker and the fluorescence peak (559 nm) of mKO thereby disappeared, so that only the fluorescence peak (495 nm) of MiCy remained
SDS-PAGE and Native-PAGE bands after the reaction with Caspase-3 [2]: When keima 616-DEVD-ECFP was reacted with Caspase-3, the bands with the sizes of keima 616 and ECFP could be confirmed
amplitude of the fluorescence cross-correlation function, Gcross(0) [2]: A rapid decrease in Gcross(0) was observed as a result of addition of Caspase-3
